Measured values: PMC8809517, “Cofactor-independent RNA editing by a synthetic S-type PPR protein”
Where a chain is given by its changes, count along the chain named.

T1: GFP-9S library array, motif 4 ND N98K;D124I (synthetic construct, N98K;D124I)
T1 chain: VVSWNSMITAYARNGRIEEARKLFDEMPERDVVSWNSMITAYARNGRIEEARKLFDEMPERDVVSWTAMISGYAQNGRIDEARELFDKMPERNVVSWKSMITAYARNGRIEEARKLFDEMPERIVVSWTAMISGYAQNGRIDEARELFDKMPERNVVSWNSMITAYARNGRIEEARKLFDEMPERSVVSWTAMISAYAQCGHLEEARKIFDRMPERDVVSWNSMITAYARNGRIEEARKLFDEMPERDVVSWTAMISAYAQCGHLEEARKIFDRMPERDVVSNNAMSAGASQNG

T2: GFP-9S library array, motif 4 ND N98R;D124A (synthetic construct, N98R;D124A)
T2 chain: T1 chain with K98R, I124A

T3: GFP-9S library array, motif 4 ND N98W;D124F (synthetic construct, N98W;D124F)
T3 chain: T1 chain with K98W, I124F

T4: GFP-9S library array, motif 4 ND N98P;D124I (synthetic construct, N98P;D124I)
T4 chain: T1 chain with K98P

T5: GFP-9S library array, motif 4 ND N98A;D124P (synthetic construct, N98A;D124P)
T5 chain: T1 chain with K98A, I124P


Experiments:
Assay in all cases: high-throughput RNA pulldown from lysate on Ni-NTA beads; HRP: 50 mM Tris pH 8, 150 mM NaCl, 1 mM beta-mercaptoethanol, 50 ug/ml BSA, 3 ug/ml yeast RNA, 0.5% heparin; ITC and FP: Tris pH 8, 200 mM KCl, 5% glycerol; MST: 50 mM Tris pH 8, 200 mM NaCl, 1 mM DTT, BSA, heparin, 0.05% Tween 20
Settings in all cases: tags: N-terminal His-eGFP
[1] = molecular target: T1, GFP-9S library array, motif 4 ND …
[2] = molecular target: T2, GFP-9S library array, motif 4 ND …
[3] = molecular target: T3, GFP-9S library array, motif 4 ND …
[4] = molecular target: T4, GFP-9S library array, motif 4 ND …
[5] = molecular target: T5, GFP-9S library array, motif 4 ND …

Binder | Kd ([1]; label: 5' Cy5) | Kd ([2]; label: 5' Cy5) | Kd ([3]; label: 5' Cy5) | Kd ([4]; label: 5' Cy5) | Kd ([5]; label: 5' Cy5) | Kd ([1]; label: 5' IRDye 800CW) | Kd ([2]; label: 5' IRDye 800CW) | Kd ([3]; label: 5' IRDye 800CW) | Kd ([4]; label: 5' IRDye 800CW) | Kd ([5]; label: 5' IRDye 800CW)
AUUACACGUGA (ssRNA) [Cy5-rpoA] | 0.13 µM | 0.0751 µM | 0.0958 µM | 0.109 µM | 0.138 µM |  |  |  |  | 
AUUAGACGUGA (ssRNA) [Cy5-rpoA-G] | 0.167 µM | 0.0894 µM | 0.0804 µM | 0.127 µM | 0.115 µM |  |  |  |  | 
AUUAAACGUGA (ssRNA) [IR-rpoA-A] |  |  |  |  |  | 0.56 µM | 0.145 µM | 0.274 µM | 0.272 µM | 0.218 µM
AUUAUACGUGA (ssRNA) [IR-rpoA-U] |  |  |  |  |  | 0.252 µM | 0.114 µM | 0.273 µM | 0.187 µM | 0.32 µM
